Data published in paper PMC3259534.
Positions count from the first letter of the chain named. Names and notes keep the numbering of the source.

B1: Pf1 peptide corresponding to the tail segment (residues 219–232) (peptide)
peptide: ERNPTQFQLPNELT
B2: Pf1 (aa 114–258) (domain or fragment)
chain: ELGHVNGLVDKSGKRTTSPSSDTDLLDRSASKTELKAIAHARILERRASRPGTPTSSASTETPTSEQNDVDEDIIDVDEEPVAAEPDYVQPQLRRPFELLIAAAMERNPTQFQLPNELTCTTALPGSSKRRRKEETTGKNVKKTQ
B3: Pf1 MBD (MRG-binding domain, residues 200–241) (domain or fragment)
chain: DYVQPQLRRPFELLIAAAMERNPTQFQLPNELTCTTALPGSS
B4: Pf1 MBD F225A (domain or fragment)
chain: B3 chain with F26A
B5: Pf1 MBD F210A (domain or fragment)
chain: B3 chain with F11A
B6: Pf1 MBD L227A (domain or fragment)
chain: B3 chain with L28A
B7: Pf1 MBD N221E (domain or fragment)
chain: B3 chain with N22E
B8: Pf1 MBD L212A (domain or fragment)
chain: B3 chain with L13A
B9: Pf1 MBD L213A (domain or fragment)
chain: B3 chain with L14A
B10: Pf1 MBD P228A (domain or fragment)
chain: B3 chain with P29A

Legend:
[1] = target: MRG15 MRG polypeptide (residues 155–323), K201R background (human) (UniProt Q9UBU8); experiment: NMR titration
[2] = target: MRG15 MRG polypeptide (residues 155–323), K201R background (human) (UniProt Q9UBU8); experiment: ITC
MRG15 MRG R201K (human) = MRG15 MRG R201K (human) (UniProt Q9UBU8); experiment: ITC
MRG15 MRG W172A (human) = MRG15 MRG W172A (human) (UniProt Q9UBU8); experiment: ITC
MRG15 MRG V268A (human) = MRG15 MRG V268A (human) (UniProt Q9UBU8); experiment: ITC
MRG15 MRG V227A (human) = MRG15 MRG V227A (human) (UniProt Q9UBU8); experiment: ITC
MRG15 MRG L287A (human) = MRG15 MRG L287A (human) (UniProt Q9UBU8); experiment: ITC
MRG15 MRG M273A (human) = MRG15 MRG M273A (human) (UniProt Q9UBU8); experiment: ITC
MRG15 MRG M228A (human) = MRG15 MRG M228A (human) (UniProt Q9UBU8); experiment: ITC

Binder | Kd [2] | further results
B1 | – | Kd [1]: 119000 nM
B2 | 16 nM | –
B3 | 12 nM | Kd (MRG15 MRG R201K (human)): 23 nM; Kd (MRG15 MRG W172A (human)): 67 nM; Kd (MRG15 MRG V268A (human)): 184 nM; Kd (MRG15 MRG V227A (human)): 194 nM; Kd (MRG15 MRG L287A (human)): 407 nM; Kd (MRG15 MRG M273A (human)): 96 nM; Kd (MRG15 MRG M228A (human)): 75 nM
B4 | 19000 nM | –
B5 | 2600 nM | –
B6 | 370 nM | –
B7 | 15 nM | –
B8 | 35 nM | –
B9 | 280 nM | –
B10 | 85 nM | –
